Here are results for one molecule from US9969795.

This assay addresses recombinant influenza HA3-protein (from H3N2, Wyoming, March 2003, Sino Biological Inc.) (Influenza virus H3N2 (Wyoming, March 2003)). The experiment in a line: SPR imaging (IBIS MX96), antibody captured on anti-human-IgG chip, HA3 1 ug/ml; global 1:1 fit in Scrubber2.

B1: AT10_004 (antibody, V domains shown)
VH: QVQLVQSGAEVRKPGASVKVSCKASGYTFTRHGISWVRQAPGQGLEWMGWISAYTGDTDYAQKFQGRVTMTTDTSTNTAYMELRSLRSDDAAVYYCARLRLQGEVVVPPSQSNWFDPWGQGTLVTVSS
VL: EIVLTQSPATLSLYPGERATLSCRASQSVSRYLAWYQQKPGQAPRLLIYDASNRATGIPARFSGSGSGTDFTLTISSLEPEDFAVYYCQQRSNWLKITFGQGTRLEIKG
As a reminder, the Kd is the constant that tells how readily two partners part at equilibrium. One may read the koff as a measure of how fast the partners let go of each other. In general, kon refers to the second-order rate constant of association. B1: the dissociation constant Kd came out at 0.07 nM, the koff came to 1e-06 s⁻¹ and the association rate constant (kon) turned out to be 14000 M⁻¹ s⁻¹.
